Broadly, the stoichiometry N is a count of units in the complex or per binding partner.

These results are taken from publication doi:10.1101/2021.11.05.467329.

“And” between values parts separate entries of the source, which are not always exact repeats. Equal entries are not always repeated.

Common to all, as to test: SEC
In general terms: In gel filtration, larger molecules generally elute earlier.

The target of assay [1] is Plasmodium falciparum glyceraldehyde 3-phosphate dehydrogenase I209T variant (recombinant) (Plasmodium falciparum) (UniProt Q8IKK7).
Assay [2] deals with Plasmodium falciparum glyceraldehyde 3-phosphate dehydrogenase V238A variant (recombinant) (Plasmodium falciparum) (UniProt Q8IKK7).
For assay [3], the target named is Plasmodium falciparum glyceraldehyde 3-phosphate dehydrogenase, wild type (recombinant) (Plasmodium falciparum) (UniProt Q8IKK7).

For “Plasmodium falciparum glyceraldehyde 3-phosphate dehydrogenase I209T variant (recombinant) (from UniProt Q8IKK7 4-335) (enzyme)”, in assay [1], the stoichiometry N is 4 and 2. On to “Plasmodium falciparum glyceraldehyde 3-phosphate dehydrogenase V238A variant (recombinant) (from UniProt Q8IKK7 4-335) (enzyme)”, for which, in assay [2], the stoichiometry N is 4 and 2.

Consider “Plasmodium falciparum glyceraldehyde 3-phosphate dehydrogenase, wild type (recombinant) (from UniProt Q8IKK7 4-335) (enzyme)”, for which, in assay [3], the stoichiometry N was determined as 4.
